T1: mouse IL-11 (mouse, UniProt P47873)
T1 chain: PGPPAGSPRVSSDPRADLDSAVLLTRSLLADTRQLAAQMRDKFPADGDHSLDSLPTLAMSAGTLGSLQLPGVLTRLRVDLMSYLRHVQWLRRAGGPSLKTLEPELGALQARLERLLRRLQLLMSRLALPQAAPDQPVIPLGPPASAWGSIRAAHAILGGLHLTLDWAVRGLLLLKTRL

T2: human IL-11 (human)
T2 chain: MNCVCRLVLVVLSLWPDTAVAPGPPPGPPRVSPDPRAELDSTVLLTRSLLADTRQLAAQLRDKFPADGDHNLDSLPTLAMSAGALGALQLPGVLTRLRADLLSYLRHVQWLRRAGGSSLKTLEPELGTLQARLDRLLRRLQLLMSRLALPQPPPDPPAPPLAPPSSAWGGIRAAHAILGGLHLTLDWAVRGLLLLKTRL


Columns and labels:
mouse IL-11 [1] = target: T1, mouse IL-11; assay: SPR steady state
mouse IL-11 [2] = target: T1, mouse IL-11; assay: SPR
human IL-11 [3] = target: T2, human IL-11; assay: SPR
human IL-11 [4] = target: T2, human IL-11; assay: SPR
human IL-11 [5] = target: T2, human IL-11; assay: SPR
human IL-11 [6] = target: T2, human IL-11; assay: SPR 25C
mouse IL-11 [7] = target: T1, mouse IL-11; assay: SPR

Row | Kd (mouse IL-11 [2]) | Kd (human IL-11 [4]) | Kd (human IL-11 [6]) | Binder | further results
1 | 28.2 nM | 0.0238 nM |  | CSJ-A-s-2B11 (antibody, V domains shown) VH: QVQLKESGPGLVQPSQTLSLTCTVSGFSLDNYNVHWVRQPTGGGLEWLGGIWTDGITDYTSPLRSRLSISRDTSKSQVFLKMKSLQTEDIATYYCARSYYYSLYYFDYWGQGVMVTVSS VL: DIQMTQSPASLSASLGETVTIECRASEDIYSNLAWYQQKPGDSPQLLIYDAHRLAEGVPSRFSGSGSGTQYSLKINSLHSEDVASYFCQQYDNYNTFGVGTKLDLK | Kd (mouse IL-11 [1]): 28.2 nM; Kd (human IL-11 [3]): 0.0214 nM; Kd (human IL-11 [5]): 0.0213 nM
2 |  |  | 96.6 pM | GVH5 (D54E)/GVL5 (antibody, V domains shown) VH: QITLKESGPTLVKPTQTLTLTCTFSGFSLSTSGMVVGWIRQPPGKALEWLAAIDWEGEKYYSPSLKSRLTITKDTSKNQVVLTMTNMDPVDTATYYCARSGNYFEYWGQGTLVTVSS VL: DIQMTQSPSSLSASVGDRVTITCRTSEDIYNALAWYQQKPGKAPQLLIYDANRLHIGVPSRFSGSGSGTDFTLTISSLQPEDFATYYCQQYYDYPNTFGQGTKLEIK | 
3 |  |  | 9.89 pM | GVH5 (D54E)/CVL3 + YTE (antibody, V domains shown) VH: QITLKESGPTLVKPTQTLTLTCTFSGFSLSTSGMVVGWIRQPPGKALEWLAAIDWEGEKYYSPSLKSRLTITKDTSKNQVVLTMTNMDPVDTATYYCARSGNYFEYWGQGTLVTVSS VL: DNQMTQSPSSLSASVGDRVTITCRTSEDIYNALAWYQQKPGKAPQLLIYDANRLHIGVPDRFSGSGSGTDFTLTISSLQAEDVAVYYCQQYYDYPNTFGQGTKLEIK | 
4 |  |  | 18.1 pM | GVH5 (D54E)/CVL3 (antibody, V domains shown) VH: QITLKESGPTLVKPTQTLTLTCTFSGFSLSTSGMVVGWIRQPPGKALEWLAAIDWEGEKYYSPSLKSRLTITKDTSKNQVVLTMTNMDPVDTATYYCARSGNYFEYWGQGTLVTVSS VL: DNQMTQSPSSLSASVGDRVTITCRTSEDIYNALAWYQQKPGKAPQLLIYDANRLHIGVPDRFSGSGSGTDFTLTISSLQAEDVAVYYCQQYYDYPNTFGQGTKLEIK | 
5 |  |  | 7.48 pM | CVH4 (D54E)/CVL3 (antibody, V domains shown) VH: QVQLQESGPGLVKPSQTLSLTCSFSGFSLSTSGMVVSWIRQPPGKALEWLAAIDWEGEKYYNPSLKSRLTVTKDTSKNQVVLTMTNMDPVDTATYYCARSGNYFEYWGQGTLVTVSS VL: DNQMTQSPSSLSASVGDRVTITCRTSEDIYNALAWYQQKPGKAPQLLIYDANRLHIGVPDRFSGSGSGTDFTLTISSLQAEDVAVYYCQQYYDYPNTFGQGTKLEIK | 
6 |  |  | 3.34 pM | CVH4 (D54E)/CVL3 + YTE (antibody, V domains shown) VH: QVQLQESGPGLVKPSQTLSLTCSFSGFSLSTSGMVVSWIRQPPGKALEWLAAIDWEGEKYYNPSLKSRLTVTKDTSKNQVVLTMTNMDPVDTATYYCARSGNYFEYWGQGTLVTVSS VL: DNQMTQSPSSLSASVGDRVTITCRTSEDIYNALAWYQQKPGKAPQLLIYDANRLHIGVPDRFSGSGSGTDFTLTISSLQAEDVAVYYCQQYYDYPNTFGQGTKLEIK | 
7 |  |  | 5.01 pM | CVH3 (D54E)/CVL3 (antibody, V domains shown) VH: QVQLQESGPGLVKPSQTLSLTCSFSGFSLSTSGMVVSWIRQPPGKALEWLAAIDWEGEKYYNPSLKSRLTVTKDTSNTQVVLTMTNMDPVDTATYYCARSGNYFEYWGQGTLVTVSS VL: DNQMTQSPSSLSASVGDRVTITCRTSEDIYNALAWYQQKPGKAPQLLIYDANRLHIGVPDRFSGSGSGTDFTLTISSLQAEDVAVYYCQQYYDYPNTFGQGTKLEIK | 
8 |  |  | 79.2 pM | GVH5 (D54E)/GVL5 + YTE (antibody, V domains shown) VH: QITLKESGPTLVKPTQTLTLTCTFSGFSLSTSGMVVGWIRQPPGKALEWLAAIDWEGEKYYSPSLKSRLTITKDTSKNQVVLTMTNMDPVDTATYYCARSGNYFEYWGQGTLVTVSS VL: DIQMTQSPSSLSASVGDRVTITCRTSEDIYNALAWYQQKPGKAPQLLIYDANRLHIGVPSRFSGSGSGTDFTLTISSLQPEDFATYYCQQYYDYPNTFGQGTKLEIK | 
9 |  |  | 1.42 pM | CVH3 (D54E)/CVL3 + YTE (antibody, V domains shown) VH: QVQLQESGPGLVKPSQTLSLTCSFSGFSLSTSGMVVSWIRQPPGKALEWLAAIDWEGEKYYNPSLKSRLTVTKDTSNTQVVLTMTNMDPVDTATYYCARSGNYFEYWGQGTLVTVSS VL: DNQMTQSPSSLSASVGDRVTITCRTSEDIYNALAWYQQKPGKAPQLLIYDANRLHIGVPDRFSGSGSGTDFTLTISSLQAEDVAVYYCQQYYDYPNTFGQGTKLEIK | 
10 | 3.77 nM | 0.145 nM |  | CSI-s-9B9 (antibody, V domains shown) VH: EVHLQQSGPELVKPGASVKMSCKASGYTFTSYVIHWVKQRPGQGLEWIGNIYPYNDDTNYNEKFKGKATLTSDKSSSTAYMELSSLTSEESAVYFCTRERATYGDLAWFAYWGQGTLVTVSA VL: NIVLTQSPASLAVSLGQRATISCRASENIDSYGNSFMHWYQQKPGQPPKLLIYLASILESGVPARFSGSGSRTDFTLTIDPVEADDAATYYCQQNNEDPYTFGGGTKLEIK | 
11 | 0.875 nM | 0.424 nM |  | CSJ-A-s-10D10 (antibody, V domains shown) VH: QVQLKESGPGLVQPSQTLSLTCTVSGFSLTNYHVHWVRQPPGKGLEWMGVMWIDGDTSYNSALRSRLSISRDTSKSQVFLKMSSLQTEDTATYYCAREGLNWFAYWGRGTLVTVSS VL: DIQMTQSPASLSVSLEEVVTITCKASQGIDDYLSWYQQKPGKSPQLLISDVTSLADGVPSRFSGSRSGTQYSLKISRPQVDDSGIYYCLQSYSTPYTFGAGTKLELK | 
12 | 0.0502 nM | 0.0174 nM |  | CSJ-B-s-3G8 (antibody, V domains shown) VH: QVTLKESGPGMLQPSKTVSLTCSFSGFSMSTSGMVVSWIRQPSGKSLEWLAAIDWDGEKYYNPSLKSRLTVSKDTSNTQVFLKISSVDIADSATYYCARSGNYFDYWGQGVMVTVSS VL: DIQMTQSPASLSASLGETVTIECRASEDIYNGLVWYQQKPGKSPQLLIYDANRLHTGVPSRFSGGGSGTQYSLKINSLQSEDVASYFCQQYYDYPNTFGAGTKLELK | Kd (mouse IL-11 [7]): 0.159 nM
13 |  |  | 7.58 pM | VH0/VL0 (antibody, V domains shown) VH: QVILKESGPGMLQPSKTLSLTCSFSGFSLSTSGMVVSWIRQPSGKSLEWLAAIDWDGEKYYNPSLKSRLTVSKDTSNTQVFLQITTVDIADTATYYCARSGNYFEYWGQGVIVTVSS VL: DNQMTQSPASLSASLGETVTIECRTSEDIYNALAWYQQKPGKSPQLLIYDANRLHIGVPSRFSGSGSGTQFSLKINSLQSEDVASYFCQQYYDYPNTFGAGTKLELN | 
